The values below come from the supplement of paper PMC10724198.

± gives the standard deviation of the averaged measurements.

The series relates to Saccharomyces cerevisiae. Nature of the series: protein stability index of tFT-peptide fusion (C-terminal peptide) (PSI (0-1 scale)); higher = more stable (slower turnover). Particulars: temperature: 30 C. Here is the method:
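MPS profiling in S. cerevisiae of the yeast C-terminome library: the last 12 aa of each annotated ORF are fused to the C-terminus of a sfGFP-mCherry timer, after a GGGS linker. Cells are FACS-sorted into 8 mCherry/sfGFP bins and deep-sequenced. PSI runs from 0 (unstable) to 1 (stable); wild type and das1Δ backgrounds, two technical replicates each.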

Where [1] appears, read: genetic background: das1 deletion.

With DLRCLKYKYKNA [YGR016W C-terminal 12 aa], the protein stability index worked out at 0.695 ± 0.011 under setting [1] and 0.348 ± 0.028 (genetic background: wild type).

In the case of DLVAQQVVQDGH [MYO2 C-terminal 12 aa], the protein stability index is, setting by setting: under setting [1], 0.7005 ± 0.0019; (genetic background: wild type) 0.707 ± 0.019.

As for DMMMLFGAEGDE [TAF7 C-terminal 12 aa], the protein stability index runs as follows: under setting [1], 0.72102 ± 0.00011; (genetic background: wild type) 0.707 ± 0.027.

Take DNFINSVKLNFR [SEC10 C-terminal 12 aa]: the protein stability index turned out to be 0.6945 ± 0.0052 under setting [1] and 0.734 ± 0.022 (genetic background: wild type).

On to “DPFDTNLSIKLS [YMR075C-A C-terminal 12 aa]”, for which the protein stability index by setting is: under setting [1], 0.696 ± 0.026; (genetic background: wild type) 0.6827 ± 0.0066.

Turning to DQTRDFGTSMEL [FOB1 C-terminal 12 aa], the protein stability index reads like this: under setting [1], 0.706 ± 0.0098; (genetic background: wild type) 0.712 ± 0.0086.

For DTVLRKFADYKI [MPS1 C-terminal 12 aa], the protein stability index under setting [1] came out at 0.7043 ± 0.0052 and the protein stability index (genetic background: wild type) worked out at 0.679 ± 0.032.

With DVKLLPPPKKRN [NUC1 C-terminal 12 aa], the protein stability index is, setting by setting: under setting [1], 0.67982 ± 0.00038; (genetic background: wild type) 0.6883 ± 0.0014.

As to EAASDEHFSRVV [YGL185C C-terminal 12 aa], the protein stability index reads like this: under setting [1], 0.709 ± 0.02; (genetic background: wild type) 0.733 ± 0.021.

Take “ECPRFSNKHGRN [YDR169C-A C-terminal 12 aa]”: the protein stability index was 0.701 ± 0.0084 under setting [1] and 0.681 ± 0.014 (genetic background: wild type).

Take EDDEDGSGVEYD [RTT106 C-terminal 12 aa]: the protein stability index runs as follows: under setting [1], 0.694 ± 0.009; (genetic background: wild type) 0.7 ± 0.062.

For the sequence EDKDSESFSEVC [YCG1 C-terminal 12 aa], the protein stability index reads like this: under setting [1], 0.702 ± 0.016; (genetic background: wild type) 0.705 ± 0.011.

EDNDYELIFMNV [PML1 C-terminal 12 aa]: the protein stability index runs as follows: under setting [1], 0.7194 ± 0.0068; (genetic background: wild type) 0.712 ± 0.019.

With EDVDEDTTPFNV [YTP1 C-terminal 12 aa], the protein stability index runs as follows: under setting [1], 0.7138 ± 0.0053; (genetic background: wild type) 0.684 ± 0.013.

Consider EDVEVPFITIHL [UBA1 C-terminal 12 aa], for which the protein stability index was determined as 0.6884 ± 0.0057 under setting [1] and 0.683 ± 0.017 (genetic background: wild type).

Regarding EDVKEEESKVGA [IOC4 C-terminal 12 aa], the protein stability index is, setting by setting: under setting [1], 0.691 ± 0.033; (genetic background: wild type) 0.664 ± 0.0082.

For EDYAYWGNRQLY [PER1 C-terminal 12 aa], the protein stability index amounted to 0.7133 ± 0.0036 under setting [1] and 0.743 ± 0.038 (genetic background: wild type).

The sequence EEDEEDEENEEQ [UBX2 C-terminal 12 aa] registered a protein stability index under setting [1] of 0.716 ± 0.016 and a protein stability index (genetic background: wild type) of 0.693 ± 0.043.

For EEGPFKADHYRY [SAH1 C-terminal 12 aa], the protein stability index under setting [1] worked out at 0.701 ± 0.011 and the protein stability index (genetic background: wild type) worked out at 0.694 ± 0.033.

Take “EEQINGKRKRKD [YJR107C-A C-terminal 12 aa]”: the protein stability index under setting [1] is 0.672 ± 0.0096 and the protein stability index (genetic background: wild type) was found to be 0.674 ± 0.022.

On to EFIFRESRKHNV [ERP3 C-terminal 12 aa], for which the protein stability index is 0.728 ± 0.058 under setting [1] and 0.71 ± 0.061 (genetic background: wild type).

Take EFSTLFDDYKDN [YRR1 C-terminal 12 aa]: the protein stability index reads like this: under setting [1], 0.7429 ± 0.0055; (genetic background: wild type) 0.767 ± 0.022.

In the case of EGEISKGAENAT [YDR444W C-terminal 12 aa], the protein stability index was 0.676 ± 0.015 under setting [1] and 0.689 ± 0.011 (genetic background: wild type).

Take EHKLGNTKYFED [ARP5 C-terminal 12 aa]: the protein stability index under setting [1] stood at 0.693 ± 0.01 and the protein stability index (genetic background: wild type) amounted to 0.687 ± 0.023.

As for EILGTDEPTVRT [PGM1 C-terminal 12 aa], the protein stability index under setting [1] was found to be 0.693 ± 0.015 and the protein stability index (genetic background: wild type) was 0.7 ± 0.014.

Consider EISNRDENSIPE [MUB1 C-terminal 12 aa], for which the protein stability index under setting [1] turned out to be 0.7214 ± 0.004 and the protein stability index (genetic background: wild type) came to 0.677 ± 0.026.

In turn, EKAERRKLSQGR [QRI5 C-terminal 12 aa] showed a protein stability index under setting [1] of 0.686 ± 0.02 and a protein stability index (genetic background: wild type) of 0.6807 ± 0.002.

As to EKANDIGFHKYR [RPS29B C-terminal 12 aa], the protein stability index reads like this: under setting [1], 0.6797 ± 0.0058; (genetic background: wild type) 0.648 ± 0.027.

As to EKIKKILSELKK [NKP1 C-terminal 12 aa], the protein stability index was 0.705 ± 0.022 under setting [1] and 0.715 ± 0.021 (genetic background: wild type).

For the sequence EKKSKKEKKEKK [NOP58 C-terminal 12 aa], the protein stability index runs as follows: under setting [1], 0.747 ± 0.07; (genetic background: wild type) 0.717 ± 0.04.

In the case of EKLILAKKDQPN [IST3 C-terminal 12 aa], the protein stability index reads like this: under setting [1], 0.6926 ± 0.0055; (genetic background: wild type) 0.709 ± 0.046.

As for EKMLAAPHQNKV [SPR28 C-terminal 12 aa], the protein stability index stood at 0.696 ± 0.015 under setting [1] and 0.6924 ± 0.001 (genetic background: wild type).

For EKPKKKEVEKTA [NOG2 C-terminal 12 aa], the protein stability index by setting is: under setting [1], 0.684 ± 0.012; (genetic background: wild type) 0.688 ± 0.018.

For EKWASQFGSSGS [SAP1 C-terminal 12 aa], the protein stability index runs as follows: under setting [1], 0.702 ± 0.024; (genetic background: wild type) 0.685 ± 0.014.

ELASYILKELNL [KIN2 C-terminal 12 aa]: the protein stability index reads like this: under setting [1], 0.731 ± 0.028; (genetic background: wild type) 0.702 ± 0.064.

For the sequence ELKKIILESSMK [EXO5 C-terminal 12 aa], the protein stability index is 0.698 ± 0.059 under setting [1] and 0.68 ± 0.011 (genetic background: wild type).

As for ELLYIIDHLSEL [BTS1 C-terminal 12 aa], the protein stability index by setting is: under setting [1], 0.693 ± 0.023; (genetic background: wild type) 0.67 ± 0.015.

EMKHSLFRNPFH [PIG2 C-terminal 12 aa] had a protein stability index under setting [1] of 0.705 ± 0.014 and a protein stability index (genetic background: wild type) of 0.678 ± 0.015.

With EPLKESIFNQLK [MRPL23 C-terminal 12 aa], the protein stability index under setting [1] is 0.694 ± 0.013 and the protein stability index (genetic background: wild type) amounted to 0.678 ± 0.059.

EQGGEGVQCASQ [YDJ1 C-terminal 12 aa] had a protein stability index under setting [1] of 0.686 ± 0.014 and a protein stability index (genetic background: wild type) of 0.69 ± 0.045.

As for ERDNWWVVAQKR [TRM9 C-terminal 12 aa], the protein stability index under setting [1] was 0.744 ± 0.023 and the protein stability index (genetic background: wild type) was 0.723 ± 0.012.

Sequence ERINFVCETYGL [AIM14 C-terminal 12 aa] registered a protein stability index under setting [1] of 0.7 ± 0.018 and a protein stability index (genetic background: wild type) of 0.7 ± 0.027.

On to ERNPSQRPQRRY [RPS10B C-terminal 12 aa], for which the protein stability index reads like this: under setting [1], 0.686 ± 0.0083; (genetic background: wild type) 0.679 ± 0.066.

For ERPQDWFEDIGE [FCY1 C-terminal 12 aa], the protein stability index by setting is: under setting [1], 0.7168 ± 0.0043; (genetic background: wild type) 0.686 ± 0.017.

ESFEKQGKIIYN [MOB2 C-terminal 12 aa]: the protein stability index by setting is: under setting [1], 0.681 ± 0.0097; (genetic background: wild type) 0.685 ± 0.042.

As to ESSKDVKRNNKD [SDH7 C-terminal 12 aa], the protein stability index is 0.691 ± 0.012 under setting [1] and 0.702 ± 0.03 (genetic background: wild type).

For the sequence ETARNLAEYNGE [SEC72 C-terminal 12 aa], the protein stability index was 0.701 ± 0.013 under setting [1] and 0.728 ± 0.0056 (genetic background: wild type).

On to ETGHISKDCPKA [GIS2 C-terminal 12 aa], for which the protein stability index runs as follows: under setting [1], 0.698 ± 0.018; (genetic background: wild type) 0.695 ± 0.013.

Take ETNFWTAAMEYE [THI22 C-terminal 12 aa]: the protein stability index is, setting by setting: under setting [1], 0.717 ± 0.011; (genetic background: wild type) 0.701 ± 0.014.

On to EVPVNTADRGRL [PMU1 C-terminal 12 aa], for which the protein stability index under setting [1] is 0.701 ± 0.021 and the protein stability index (genetic background: wild type) worked out at 0.76 ± 0.071.

On to EWSSGIPHPEMI [ARA2 C-terminal 12 aa], for which the protein stability index came to 0.7305 ± 0.0044 under setting [1] and 0.667 ± 0.018 (genetic background: wild type).

Turning to EYEPFVMYIINL [VMA5 C-terminal 12 aa], the protein stability index turned out to be 0.6058 ± 0.001 under setting [1] and 0.545 ± 0.0069 (genetic background: wild type).

Take EYMIERCRGHVL [YPL108W C-terminal 12 aa]: the protein stability index worked out at 0.708 ± 0.032 under setting [1] and 0.753 ± 0.04 (genetic background: wild type).

As for FANKSSSGGDEV [YIL089W C-terminal 12 aa], the protein stability index is, setting by setting: under setting [1], 0.6849 ± 0.0047; (genetic background: wild type) 0.672 ± 0.028.

Take FASPTLSFFFPI [YGL149W C-terminal 12 aa]: the protein stability index runs as follows: under setting [1], 0.724 ± 0.013; (genetic background: wild type) 0.7061 ± 0.002.

With FCTVAKIIQCFL [YDR396W C-terminal 12 aa], the protein stability index under setting [1] stood at 0.5838 ± 0.0053 and the protein stability index (genetic background: wild type) came to 0.4942 ± 0.0047.

As to FDAVTKTLEKYA [YKR070W C-terminal 12 aa], the protein stability index was found to be 0.68 ± 0.019 under setting [1] and 0.6879 ± 0.0054 (genetic background: wild type).

Turning to FDLIKLALQRKK [AGX1 C-terminal 12 aa], the protein stability index was 0.7118 ± 0.0048 under setting [1] and 0.68 ± 0.04 (genetic background: wild type).

Regarding FDREDAMKKENK [DPH2 C-terminal 12 aa], the protein stability index worked out at 0.692 ± 0.024 under setting [1] and 0.663 ± 0.059 (genetic background: wild type).

As for FDYDFLFGNDFA [OAF1 C-terminal 12 aa], the protein stability index was 0.791 ± 0.006 under setting [1] and 0.75 ± 0.052 (genetic background: wild type).

For “FFFSNSFLPASR [YJL127W-A C-terminal 12 aa]”, the protein stability index by setting is: under setting [1], 0.7317 ± 0.0022; (genetic background: wild type) 0.788 ± 0.11.

For “FFTIEKYSVRRS [YOL013W-A C-terminal 12 aa]”, the protein stability index by setting is: under setting [1], 0.7332 ± 0.0047; (genetic background: wild type) 0.681 ± 0.01.

Take FGYESTDQILKL [NNR1 C-terminal 12 aa]: the protein stability index is 0.738 ± 0.0047 under setting [1] and 0.708 ± 0.054 (genetic background: wild type).

Turning to FHHTSKTFAFAD [YGR219W C-terminal 12 aa], the protein stability index runs as follows: under setting [1], 0.696 ± 0.022; (genetic background: wild type) 0.674 ± 0.0088.

For the sequence FHLRHHKGAEEH [ATP17 C-terminal 12 aa], the protein stability index runs as follows: under setting [1], 0.7076 ± 0.0039; (genetic background: wild type) 0.678 ± 0.019.

Take FIAHLILTDALK [ULP1 C-terminal 12 aa]: the protein stability index under setting [1] amounted to 0.64 ± 0.025 and the protein stability index (genetic background: wild type) is 0.691 ± 0.039.

Consider FIRFAINIHTFI [YJL009W C-terminal 12 aa], for which the protein stability index worked out at 0.46 ± 0.0057 under setting [1] and 0.377 ± 0.011 (genetic background: wild type).
